Where “and” joins values, the source holds several entries; their conditions need not be identical. Identical values can stand only once.
Details: Leishmania major, pH 7.5, potassium phosphate, NaCl, transition: 2, whole UniProt chain shown
[1] = GdnHCl, fluorescence emission maxima
[2] = Urea, fluorescence emission maxima

B1: Peptidyl-prolyl cis-trans isomerase wild type, Q4QII4 (protein)
chain: MPTSSWRAEHLLIKHSGSRNPVSRRTGQPTTISYEEAVTELQKWCQSINDGKVTFEEAARQRSDCSSYARGGDLGVFGPGEMMKPFEDATKSLEVGQVSGIVVTDSGVHIIKRIA
GdnHCl, CD
  denaturant m value: 3.32 kcal/mol/M
  denaturant midpoint (higher = more stable): 0.98 M
  unfolding free energy: 3.27 kcal/mol
GdnHCl, anisotropy
  denaturant m value: 3.87 kcal/mol/M
  denaturant midpoint (higher = more stable): 1.16 M
  unfolding free energy: 4.51 kcal/mol
[1]
  denaturant m value: 4.3 kcal/mol/M
  denaturant midpoint (higher = more stable): 1.1 M
  unfolding free energy: 4.74 kcal/mol
GdnHCl, fluorescence intensity
  denaturant m value: 4.61 kcal/mol/M
  denaturant midpoint (higher = more stable): 0.97 M
  unfolding free energy: 4.48 kcal/mol
Thermal, DSC
  unfolding enthalpy (calorimetric): 36.6 kcal/mol and 55.1 kcal/mol
Urea, CD
  denaturant m value: 1.38 kcal/mol/M
  denaturant midpoint (higher = more stable): 4.12 M
  unfolding free energy: 5.69 kcal/mol
Urea, anisotropy
  denaturant m value: 1.2 kcal/mol/M
  denaturant midpoint (higher = more stable): 4.15 M
  unfolding free energy: 4.99 kcal/mol
[2]
  denaturant m value: 1.28 kcal/mol/M
  denaturant midpoint (higher = more stable): 4.78 M
  unfolding free energy: 5.12 kcal/mol
Urea, fluorescence intensity
  denaturant m value: 1.39 kcal/mol/M
  denaturant midpoint (higher = more stable): 3.53 M
  unfolding free energy: 4.91 kcal/mol
